# Source: US20170095512A1, “METHODS OF INDUCING MYELINATION AND MATURATION OF OLIGODENDROCYTES” (KADIMASTEM LTD., priority 2014, published 2017)
# Tests used:
# [1] = tested on: hPSC derived oligodendrocytes co-cultured with rodent dorsal root ganglia neurons (MBP+ cells); assay: Co-culture myelination assay (human oligodendrocytes with DRG neurons), MBP staining; assay type: cell-based; settings: 14 days co-culture; Noggin 50 ng/ml; LDN-193189 125 nM
# Description: ArrayScan VTI HCS reader system (Cellomis, Thermo-scientific) was used for scanning at least 20 fields for each tested well under 10× objective in both assays (differentiation and myelination). Cellomics Neural profiling bio-application was used for processing and analyzing the images. For differentiation assay, the following parameters were tested: number and percentage of O4+ cells, number of processes, processes length and number of branching points. For myelination assay, the same morphological parameters were tested and in addition: areas of myelinated axons in pixels (MBP&NF overlap area) and Number of myelinated regions (MBP&NF overlap count) were also analyzed. Modifications in the Neuro-profiling bio-application were conducted for this specific purpose. T-test analysis was used to compare between treatments. The 4-parameter Hill-Slope curve fittings were generated by GraphPad Prism software using least squares fitting method and EC50 values were calculated. […]
# For testing maturation and myelination capacity of the hPSC derived oligodendrocytes, a co-culture system between rodent dorsal root ganglia (DRGs) and hPSCs derived oligodendrocytes was used. The number of MBP+ cells (MBP, a marker of oligodendrocytes' myelin) and Myelin formation (measured by co-localization area between MBP and neurofilament positive neuronal axons) was quantified.
# [2] = tested on: glial progenitor cells derived from human ES cells (Olig2 positive cells); assay: hOPC differentiation assay, Olig2 positive cells (immunostaining, high content screening); assay type: cell-based; settings: days 21, 28, 35, 42; noggin 100 ng/ml; LDN-193189 62.5 nM and 125 nM
# Description: In order to initiate differentiation 20,000 GPCs were seeded in each well of Matrigel coated plates of 96 wells, or on PolyD-Lysine/laminin (PDL/lam)-coated 96 well plates. Cells were grown in GM media for two to three days. Then GM was replaced by differentiation medium without growth factors, (DMEM/F12, 1% B27, 0.5% N2, Vitamin C (Sigma, 50 ug/ml). Differentiation medium was supplemented with the following tested compounds: […] All media were replaced every other day. The oligodendrocyte lineage cells were characterized by the expression of a transcription factor olig2. The rabbit polyclonal AB anti olig2 (Millipore cat AB9610) was added to PFA fixed cells. […] ArrayScan VTI HCS reader system (Cellomis, Thermo-scientific) was used for scanning at least 20 fields for each tested well under 10× objective in both assays (differentiation and myelination). […] For myelination assay, the same morphological parameters were tested and in addition: areas of myelinated axons in pixels (MBP&NF overlap area) and Number of myelinated regions (MBP&NF overlap count) were also analyzed. […] The 4-parameter Hill-Slope curve fittings were generated by GraphPad Prism software using least squares fitting method and EC50 values were calculated. […] Time points used for analysis are 21, 28, 35 and 42 days of differentiation, for each time point 20 fields were analyzed. […]
molecule,measurement,setting,value
"Noggin: the inhibitor of BMP signaling noggin (R&D) (protein, UniProt Q13253 28-232, looked up) Noggin: QHYLHIRPAPSDNLPLVDLIEHPDPIFDPKEKDLNETLLRSLLGGHYDPGFMATSPPEDRPGGGGGAAGGAEDLAELDQLLRQRPSGAMPSEIKGLEFSEGLAQGKKQRLSKKLRRKLQMWLWSQTFCPVLYAWNDLGSRFWPRYVKVGSCFSKRSCSVPEGMVCKPSKSVHLTVLRWRCQRRGGQRCGWIPIQYPIISECKCSC",Myelin fibers,[1],Myelin fibers are observed
same,conversion of neural stem cells to Olig2 positive cells,[2],stimulate the conversion of neural stem cells to Olig2 positive cells
